Measured values taken from patent US20220017632A1 (HANX BIOPHARMACEUTICS, published 2022).

T1: human fusion protein hOX40-HIS (human, UniProt P43489 29-216, limits assumed)
T1 construct: it looks like the extracellular region; also called hOX40-HIS antigen; human OX40 antigen
T1 sequence: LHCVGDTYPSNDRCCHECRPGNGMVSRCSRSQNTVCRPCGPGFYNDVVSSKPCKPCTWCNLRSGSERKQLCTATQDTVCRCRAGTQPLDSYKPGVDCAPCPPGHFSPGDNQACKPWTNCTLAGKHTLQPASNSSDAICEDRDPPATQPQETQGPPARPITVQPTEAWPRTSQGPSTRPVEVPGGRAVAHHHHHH

T2: hOX40 protein on the cell membrane surface (293T-OX40 stably transfected cells) (human, UniProt P43489 29-277)
T2 construct: whole, on cells; also called hOX40 on the surface of the cell membrane; 293T cells expressing hOX40
T2 sequence (looked up): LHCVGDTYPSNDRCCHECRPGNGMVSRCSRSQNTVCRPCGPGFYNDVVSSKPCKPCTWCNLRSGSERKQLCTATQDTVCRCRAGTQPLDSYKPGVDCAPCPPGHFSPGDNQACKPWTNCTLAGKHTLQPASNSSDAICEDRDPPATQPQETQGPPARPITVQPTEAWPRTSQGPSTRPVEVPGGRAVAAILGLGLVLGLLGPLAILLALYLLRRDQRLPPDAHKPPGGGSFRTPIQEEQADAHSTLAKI

T3: murine OX40 antigen (murine, UniProt P47741 20-211, limits assumed)
T3 sequence (looked up): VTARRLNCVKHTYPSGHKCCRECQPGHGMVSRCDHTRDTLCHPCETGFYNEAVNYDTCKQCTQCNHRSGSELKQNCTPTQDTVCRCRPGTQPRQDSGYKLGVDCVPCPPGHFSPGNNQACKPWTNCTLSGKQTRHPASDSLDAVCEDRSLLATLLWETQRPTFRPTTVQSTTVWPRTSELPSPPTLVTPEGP

B1: antibody 8A7 (antibody, V domains shown)
VH: QVQLQESGPSHVKPSQTLSLTCSVTGDSITSGYWNWIRKFPGNKLEYLGYISFSGNTYYNPSLKSRISIIRDTSKNQYYLQLNSVTTEDTATYYCARYPYSYSNWDYAMDYWGQGTSVTVSS
VL: DIVMTQSPSSLVVSVGEKVTMSCKSSQFLLYSSSQKNYLAWYQQKPGQSPQLLIYWASTRESGVPDRFTGSGSGTDFTLTISSVKAEDLAVYYCHQYYSYPLTFGAGTKLELK
notes: Purified mouse hybridoma antibody; also called 8A7 antibody; 8A7 Ab
B2: antibody 9C12 (antibody, V domains shown)
VH: QVQLQQSGGGLVKPGGSLKLSCAASGFTFSDYYMYWVRQTPEKRLEWVATISDGGSNTYYPDSVKGRFTISRDNAKNNLYLQMSSLKSEDTATYYCARRGTGTGFGYWGQGTLVTVSA
VL: DIVLTQTTASLSVSVGETVTITCRASENIYSTLAWYQQKQGKSPQLLVYAATNLVAGVPSRFSGSGSGTQYSLKINSLQSEDFGSYYCQHFWGIPWTFGGGTKLEIK
notes: Purified mouse hybridoma antibody; also called 9C12 antibody; 9C12 Ab
B3: antibody 1D9 (antibody, V domains shown)
VH: EVQLQQSGPELVKPGALVKISCKASGYTFTNYDINWVKQRPGQGLEWIGWIYPEDGSTKYNEKFKGKATLTADKSSSTAYMQLSSLTSENSAVYFCARDTRGYFDYWGQGTTLTVSS
VL: DIVMTQTTAIMSASLGEKVTMSCRASSSVNYIYWYQQKSDASPKLWIYYTSNLAPGVPARFSGSGSGNSYSLTISSMEGEDAATYYCQQFTSSPWTFGGGTKLEFKR
notes: Purified mouse hybridoma antibody; also called 1D9 antibody; 1D9 Ab

Key:
[1] = target: T1, human fusion protein hOX40-HIS; experiment: ELISA, coated hOX40-HIS 0.6 ug/ml
Experimental: (§1) 3) addition of the primary antibody: preparing the four antibodies to a concentration of 2 μg/ml, and diluting 1:5 from the 2 μg/ml as the starting concentration to 7 gradient concentrations (that is, the concentrations of 2μg/ml, 400 ng/ml, 80 ng/ml, 16 ng/ml, 3.2 ng/ml, 0.64 ng/ml, 0.128 ng/ml, respectively). The prepared primary antibodies were added individually, and incubated at 30° C. for 1 hour; PBS was used as the blank control group;
The ELISA test results are shown in Table 1, in which, the EC₅₀ value represents the half-maximal effect concentration, that is, the concentration that can cause 50% of the maximum effect.

[2] = target: T1, human fusion protein hOX40-HIS; experiment: ELISA, coated hOX40-HIS; antibody 16 ng/ml; well 1
Experimental: (§2) For the hybridoma antibodies prepared in Example 1, the specific binding of different antibodies to hOX40 was detected by the following steps:
as §1

[3] = target: T1, human fusion protein hOX40-HIS; experiment: ELISA, coated hOX40-HIS; antibody 16 ng/ml; well 2
Experimental: as §2, §1

[4] = target: T1, human fusion protein hOX40-HIS; experiment: ELISA, coated hOX40-HIS; antibody 80 ng/ml; well 1
Experimental: as §2, §1

[5] = target: T1, human fusion protein hOX40-HIS; experiment: ELISA, coated hOX40-HIS; antibody 80 ng/ml; well 2
Experimental: as §2, §1

[6] = target: T1, human fusion protein hOX40-HIS; experiment: ELISA, coated hOX40-HIS; antibody 3.2 ng/ml; well 1
Experimental: as §2, §1

[7] = target: T1, human fusion protein hOX40-HIS; experiment: ELISA, coated hOX40-HIS; antibody 3.2 ng/ml; well 2
Experimental: as §2, §1

[8] = target: T1, human fusion protein hOX40-HIS; experiment: ELISA, coated hOX40-HIS; antibody 400 ng/ml; well 1
Experimental: as §2, §1

[9] = target: T1, human fusion protein hOX40-HIS; experiment: ELISA, coated hOX40-HIS; antibody 400 ng/ml; well 2
Experimental: as §2, §1

[10] = target: T1, human fusion protein hOX40-HIS; experiment: ELISA, coated hOX40-HIS; antibody 0.64 ng/ml; well 1
Experimental: as §2, §1

[11] = target: T1, human fusion protein hOX40-HIS; experiment: ELISA, coated hOX40-HIS; antibody 0.64 ng/ml; well 2
Experimental: as §2, §1

[12] = target: T1, human fusion protein hOX40-HIS; experiment: ELISA, coated hOX40-HIS; antibody 2000 ng/ml; well 1
Experimental: as §2, §1

[13] = target: T1, human fusion protein hOX40-HIS; experiment: ELISA, coated hOX40-HIS; antibody 2000 ng/ml; well 2
Experimental: as §2, §1

[14] = target: T1, human fusion protein hOX40-HIS; experiment: ELISA, coated hOX40-HIS; antibody 0.128 ng/ml; well 1
Experimental: as §2, §1

[15] = target: T1, human fusion protein hOX40-HIS; experiment: ELISA, coated hOX40-HIS; antibody 0.128 ng/ml; well 2
Experimental: as §2, §1

[16] = target: T1, human fusion protein hOX40-HIS; experiment: SPR, ProteOn XPR, hOX40-HIS immobilized on GLM chip, antibody as analyte
Experimental: The ProteOn XPR molecular interaction instrument may be used to detect the kinetics and affinity constants of the interaction between different drugs and a variety of different target proteins. 250 nM hOX40-HIS antigen ([…] hOX40 antigen) was immobilized on the surface of the GLM chip, and after equilibrating in PBST, was allowed to bind to the antibody 9C12 diluted twice in PBST to the concentration of 50, 25, 12.5, 6.25, 3.125, 0 nM, respectively, and then dissociated in PBST.

[17] = target: T2, hOX40 protein on the cell membrane …; experiment: flow cytometry on 293T-OX40 cells
Experimental: In this experiment, 293T-OX40 stably transfected cell lines were used as the experimental cells, and the FACS method was used to detect the binding of 9C12 to the hOX40 protein on the cell membrane surface. The specific procedure is as follows:
293T cells expressing hOX40 were digested, and prepared to a final concentration of 10⁶ cells/ml. 100 μl of cell suspension from each group was added into a 1.5 ml EP tube. Various concentrations of 9C12 antibody (10000 ng/ml, 4000 ng/ml, 2000 ng/ml, 1000 ng/ml, 500 ng/ml, 200 ng/ml, 20 ng/ml, 2 ng/ml) were added, and incubated on ice for 1 hour. After 1 hour, the tube was washed with HBSS once. Each group was added with prepared APC goat anti-human IgG secondary antibody, incubated on ice for 20 minutes in the dark, washed once with HBSS, and finally suspended with 200 μl of HBSS, and the cells were tested.

[18] = target: T1, human fusion protein hOX40-HIS; experiment: ELISA, coated human OX40-HIS 0.25 ug/ml
Experimental: (§3) Human OX40 antigen, monkey OX40 antigen and murine OX40 antigen were used for coating respectively to detect whether OX40 antibody cross-reacts with OX40 protein of different species, through the following steps:
(§4) 3) addition of the primary antibody: preparing antibody 9C12 to a concentration of 2 μg/ml, and diluting 1:5 from the 2 μg/ml as the starting concentration to […] 7 gradient concentrations (that is, the concentrations of 2 μg/ml, 400 ng/ml, 80 ng/ml, 16 ng/ml, 3.2 ng/ml, 0.64 ng/ml, 0.128 ng/ml, respectively). PBS was used as the blank control group. The prepared primary antibodies were added individually, and incubated at 30° C. for 1 hour;

[19] = target: T3, murine OX40 antigen; experiment: ELISA, coated murine OX40 antigen 0.25 ug/ml
Experimental: as §3, §4

[20] = target: T4, monkey OX40 antigen (monkey); experiment: ELISA, coated monkey OX40-HIS 0.25 ug/ml
T4 construct: also called Monkey OX40-HIS antigen
Experimental: as §3, §4

EC50 [1]	absorbance at 450 nm [2]	absorbance at 450 nm [3]	absorbance at 450 nm [4]	absorbance at 450 nm [5]	absorbance at 450 nm [6]	absorbance at 450 nm [7]	absorbance at 450 nm [8]	absorbance at 450 nm [9]	absorbance at 450 nm [10]	absorbance at 450 nm [11]	absorbance at 450 nm [12]	absorbance at 450 nm [13]	absorbance at 450 nm [14]	absorbance at 450 nm [15]	Kd [16]	koff [16]	kon [16]	other results	Binder
0.727 nM	0.272	0.288	0.894	0.87	0.096	0.094	1.64	1.66	0.059	0.058	1.93	1.98	0.05	0.056	20.8 nM	0.000567 s⁻¹	27300 M⁻¹ s⁻¹	–	B1
0.017 nM	2.4	2.25	2.59	2.51	1.58	1.51	2.59	2.52	0.464	0.464	2.72	2.68	0.147	0.138	0.151 nM	6.73e-05 s⁻¹	445000 M⁻¹ s⁻¹	EC50 [17]: 2.84 nM; EC50 [18]: 0.012 nM; binding result [19]: no binding (tested: 2000 ng/ml); EC50 [20]: 0.01 nM	B2
10.8 nM	0.104	0.123	0.316	0.287	0.061	0.066	1.11	1.12	0.051	0.053	2.95	3.08	0.053	0.052	–	–	–	–	B3
